Measurements from article PMC3105061.

Molecular target: fluorescein labeled SecYEG reconstituted in proteoliposomes (E. coli) (UniProt P0AGA2)
Assay: FRET or BRET; DCFBA-FRET on single proteoliposomes; SecYEG-FM (donor, 488 nm excitation) in PLs, proOmpA(C282)-DhfR-Atto647N (acceptor) in complex with SecB, SecA, NADPH and methotrexate, with or without ATP; in hydrogel of gelator 1 and in suspension; stalled translocation intermediate

Chain of UniProt P0AGA2 (P0AGA2 whole entry, chain 1 of 3): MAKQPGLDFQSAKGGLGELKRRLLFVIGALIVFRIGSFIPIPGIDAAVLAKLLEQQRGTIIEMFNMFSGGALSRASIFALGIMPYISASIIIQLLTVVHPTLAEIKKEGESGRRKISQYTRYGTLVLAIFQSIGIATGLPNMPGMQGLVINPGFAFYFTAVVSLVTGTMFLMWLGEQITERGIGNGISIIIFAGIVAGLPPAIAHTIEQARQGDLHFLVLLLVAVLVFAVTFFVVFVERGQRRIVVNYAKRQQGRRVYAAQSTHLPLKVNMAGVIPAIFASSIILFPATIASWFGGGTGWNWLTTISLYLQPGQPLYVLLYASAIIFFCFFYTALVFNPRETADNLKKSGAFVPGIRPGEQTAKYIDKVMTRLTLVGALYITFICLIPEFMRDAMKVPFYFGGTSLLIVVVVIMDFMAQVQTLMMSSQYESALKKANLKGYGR
Chain of UniProt P0AGA2 (P0AG96 whole entry, chain 2 of 3, further chain): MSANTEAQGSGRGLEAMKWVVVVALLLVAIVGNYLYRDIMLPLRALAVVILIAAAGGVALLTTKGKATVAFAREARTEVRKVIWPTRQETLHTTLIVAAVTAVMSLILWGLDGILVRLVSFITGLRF
Chain of UniProt P0AGA2 (P0AG99 whole entry, chain 3 of 3, further chain): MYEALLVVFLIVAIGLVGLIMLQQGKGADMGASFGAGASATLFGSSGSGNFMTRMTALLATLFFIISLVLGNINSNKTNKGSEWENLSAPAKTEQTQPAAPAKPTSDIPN

average FRET efficiency per liposome in the hydrogel compared to suspension: 50%
Substance: fusion protein proOmpA(C282)-DhfR-Atto647N
